In paper PMC7039703:

Legend:
[1] = target: His-tagged FcγRIIaR (human) (UniProt P12318); assay: ELISA
[2] = target: His-tagged FcγRIIB (human) (UniProt P31994); assay: ELISA
His-tagged FcγRI (human) = His-tagged FcγRI (human) (UniProt P12314); assay: ELISA
FcγRIIIaV (human) = FcγRIIIaV (human) (UniProt P08637); assay: BLI
Sequence of UniProt P08637 (P08637 17-208): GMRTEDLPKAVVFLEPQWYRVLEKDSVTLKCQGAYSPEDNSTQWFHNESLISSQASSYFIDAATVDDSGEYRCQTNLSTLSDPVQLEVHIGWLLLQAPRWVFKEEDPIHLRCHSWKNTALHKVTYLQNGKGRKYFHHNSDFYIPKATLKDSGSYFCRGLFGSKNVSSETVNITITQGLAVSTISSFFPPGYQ

Sequence of UniProt P12314 (P12314 16-292): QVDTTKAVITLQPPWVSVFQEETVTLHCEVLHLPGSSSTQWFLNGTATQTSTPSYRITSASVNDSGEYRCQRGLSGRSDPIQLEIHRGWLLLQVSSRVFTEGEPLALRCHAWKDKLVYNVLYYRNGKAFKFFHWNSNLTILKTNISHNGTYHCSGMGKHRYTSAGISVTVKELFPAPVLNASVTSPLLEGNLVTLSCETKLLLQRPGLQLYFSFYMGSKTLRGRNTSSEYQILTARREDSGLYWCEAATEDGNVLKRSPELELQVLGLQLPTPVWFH
Sequence of UniProt P31994 (P31994 43-217): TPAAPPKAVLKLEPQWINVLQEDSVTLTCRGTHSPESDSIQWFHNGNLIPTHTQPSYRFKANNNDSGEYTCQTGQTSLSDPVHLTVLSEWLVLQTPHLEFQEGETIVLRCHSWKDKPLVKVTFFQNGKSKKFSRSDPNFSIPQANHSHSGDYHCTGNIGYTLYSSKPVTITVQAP
Sequence of UniProt P12318 (P12318 34-217): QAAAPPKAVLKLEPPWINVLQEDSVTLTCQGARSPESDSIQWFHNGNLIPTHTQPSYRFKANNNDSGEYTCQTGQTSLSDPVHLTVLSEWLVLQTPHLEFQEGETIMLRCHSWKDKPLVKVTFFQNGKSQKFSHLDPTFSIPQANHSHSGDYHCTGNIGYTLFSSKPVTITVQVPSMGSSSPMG

fold reduction of binding competition against 293S anti-CD20 [1]: > 10 fold
fold reduction of binding competition against 293S anti-CD20 [2]: > 10 fold
fold reduction of binding competition against 293S anti-CD20 (His-tagged FcγRI (human)): > 10 fold
fold lower binding affinity against 293S anti-CD20 (FcγRIIIaV (human)): 5.8 fold
Substance: monoclonal anti-CD20 antibody GA101 produced in 293SGlycoDelete cells
